Laboratory results from patent publication US20070184522A1, “Cell death modulation via antagonists of Fasl and Fas activation” (University of Pittsburgh of the Commonwealth System of …, priority 2004, published 2007).
“Also recorded” adds a separate entry of the source.

What was measured:
[1] = tested on: Fas self-assembly in Hepa 1-6 cells; assay: FRET assay of CFP-Fas/YFP-Fas in transfected Hepa 1-6 cells; assay type: cell-based; conditions: Hepa 1-6 cells, CFP-Fas and YFP-Fas, FasL with AlphaMet
Procedure: FIG. 3a presents data collected from Jurkat cells (1×10^6) treated with 2 μg/ml of Fas Ligand with or without AlphaMet for 30 minutes on ice. Cells were washed with PBS twice and then incubated with 2 mM of DTSSP in PBS for 30 minutes. The crosslinking process was stopped by 20 mM of Tris (pH 7.5) for another 30 minutes. Cells were spun down and washed with PBS twice and lyzed in RIPA buffer. Cell lysates were subjected to SDS-PAGE under non-reducing or reducing conditions (FIG. 3b) and Western blot analysis using the mouse monoclonal antibody against human Fas. FIG. 3c depicts the quantification of the data in FIG. 3a by densitometry. The data are the mean and SE from three different independent crosslinking and Western blot experiments. […] Frame A: Acceptor CFP-Fas image; Frame B: Acceptor pre-bleach CFP-Fas image; Frame C: Acceptor post-bleach image. Frame D: Donor YFP-Fas image; Frame E: Donor pre-bleach image; Frame F: Donor pre-bleach image. […] Cells were fixed and analyzed by fluorescence microscopy. […]
FRET assay. […] Fret efficiency (E) was calculated as FRETeff=(Dpost−Dpre)/Dpost (Dpost and Dpre are the mean emission intensity […] YFP bleaching).
Fluorescence protein tagged Fas molecules and Hepa 1-6 cells were used for these experiments. […] In these experiments the percent of Fas capping was also determined.

[2] = tested on: Caspase 3 activation in Jurkat cells; assay: Cleaved Caspase 3 Western blot in apoptotic Jurkat cells; assay type: cell-based, human; conditions: Fas-ligand
Procedure: For FIG. 4a, Jurkat cells (1.5×10^5) were overnight treated in triplicate with 5 ng/ml of crosslinked human Fas ligand with or without 5 μg/ml of recombinant AlphaMet or 1 μg/ml of the indicated polypeptides. Percent apoptosis was determined by Trypan Blue staining using a hemocytometer. The data are representative and were repeated at least four times. […] The 17 kDa fragment of cleaved Caspase 3 is visualized by this antibody. The blot was reprobed for β-actin as a loading control. For FIG. 4c, serum deprived Hepa 1-6 cells (3×10^5) were overnight treated with 1 μg/ml of crosslinked mouse Fas ligand with or without AlphaMet or the indicated polypeptide. Media were collected and centrifuged to pellet the dead cells. […] The data in FIG. 4c represents three independent experiments.
To provide biochemical evidence that AlphaMet inhibited FasL-mediated apoptosis, the activation of Caspase 3, a down stream executioner in Fas mediated apoptosis, was analyzed in apoptotic Jurkat cells.

Sequence of Fas self-assembly in Hepa 1-6 cells (P25445 26-190 limits assumed): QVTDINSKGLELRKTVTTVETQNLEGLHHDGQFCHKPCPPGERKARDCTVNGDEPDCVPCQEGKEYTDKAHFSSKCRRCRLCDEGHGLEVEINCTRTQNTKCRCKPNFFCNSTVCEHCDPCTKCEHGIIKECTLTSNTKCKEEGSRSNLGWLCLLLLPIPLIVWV

B1: alpha subunit of Met (AlphaMet), amino acid residues 1 to 306, His-tagged (receptor, mouse)
chain: MKAPTVLAPGILVLLLSLVQRSHGECKEALVKSEMNVNMKYQLPNFTAETPIQNVVLHGHHIYLGATNYIYVLNDKDLQKVSEFKTGPVLEHPDCLPCRDCSSKANSSGGVWKDNINMALLVDTYYDDQLISCGSVNRGTCQRHVLPPDNSADIQSEVHCMFSPEEESGQCPDCVVSALGAKVLLSEKDRFINFFVGNTINSSYPPGYSLHSISVRRLKETQDGFKFLTDQSYIDVLPEFLDSYPIKYIHAFESNHFIYFLTVQKETLDAQTFHTRIIRFCSVDSGLHSYMEMPLECILTEKRRKRHHHHHH
With B1 the “FasL-induced FRET” value [1] was “no significant FRET could be detected; also recorded: inhibited the FasL-induced FRET phenomenon” and the “Caspase 3 activation (17 kDa cleaved form)” value [2] was “markedly reduced”.
